This note sets out measurements from US20250170227A1.

For test [1], the target named is C1s. As to the kind of experiment: C1s activity inhibition.
The target in test [2] is C1s. The test can be described thus: C1s activity inhibition; 10x periodate.
In test [3] the target is C1s. The test can be described thus: C1s activity inhibition; 20x periodate.
Test [4] has as its target C1s. As to the kind of experiment: C1s activity inhibition; 40x periodate.

One may read the IC50 as the concentration at which inhibition is half-maximal. Read a low IC50 as greater potency in that assay. In test [1], Cinryze displayed an IC50 of 1.49 nM.

Cinryze-5k-10x gave an IC50 in test [2] of 1.45 nM.

For the substance Cinryze-5k-20x, in test [3], the IC50 amounted to 2.26 nM.

As to Cinryze-PEG5k-40x, the IC50 in test [4] was determined as 2.7 nM. This counts as single-digit nanomolar.
